The record followed here is IntAct's records for PubMed 26586190.

B1: Sestrin-2 (Homo sapiens), P58004 (parent)
chain: MIVADSECRAELKDYLRFAPGGVGDSGPGEEQRESRARRGPRGPSAFIPVEEVLREGAESLEQHLGLEALMSSGRVDNLAVVMGLHPDYFTSFWRLHYLLLHTDGPLASSWRHYIAIMAAARHQCSYLVGSHMAEFLQTGGDPEWLLGLHRAPEKLRKLSEINKLLAHRPWLITKEHIQALLKTGEHTWSLAELIQALVLLTHCHSLSSFVFGCGILPEGDADGSPAPQAPTPPSEQSSPPSRDPLNNSGGFESARDVEALMERMQQLQESLLRDEGTSQEEMESRFELEKSESLLVTPSADILEPSPHPDMLCFVEDPTFGYEDFTRRGAQAPPTFRAQDYTWEDHGYSLIQRLYPEGGQLLDEKFQAAYSLTYNTIAMHSGVDTSVLRRAIWNYIHCVFGIRYDDYDYGEVNQLLERNLKVYIKTVACYPEKTTRRMYNLFWRHFRHSEKVHVNLLLLEARMQAALLYALRAITRYMT
partner: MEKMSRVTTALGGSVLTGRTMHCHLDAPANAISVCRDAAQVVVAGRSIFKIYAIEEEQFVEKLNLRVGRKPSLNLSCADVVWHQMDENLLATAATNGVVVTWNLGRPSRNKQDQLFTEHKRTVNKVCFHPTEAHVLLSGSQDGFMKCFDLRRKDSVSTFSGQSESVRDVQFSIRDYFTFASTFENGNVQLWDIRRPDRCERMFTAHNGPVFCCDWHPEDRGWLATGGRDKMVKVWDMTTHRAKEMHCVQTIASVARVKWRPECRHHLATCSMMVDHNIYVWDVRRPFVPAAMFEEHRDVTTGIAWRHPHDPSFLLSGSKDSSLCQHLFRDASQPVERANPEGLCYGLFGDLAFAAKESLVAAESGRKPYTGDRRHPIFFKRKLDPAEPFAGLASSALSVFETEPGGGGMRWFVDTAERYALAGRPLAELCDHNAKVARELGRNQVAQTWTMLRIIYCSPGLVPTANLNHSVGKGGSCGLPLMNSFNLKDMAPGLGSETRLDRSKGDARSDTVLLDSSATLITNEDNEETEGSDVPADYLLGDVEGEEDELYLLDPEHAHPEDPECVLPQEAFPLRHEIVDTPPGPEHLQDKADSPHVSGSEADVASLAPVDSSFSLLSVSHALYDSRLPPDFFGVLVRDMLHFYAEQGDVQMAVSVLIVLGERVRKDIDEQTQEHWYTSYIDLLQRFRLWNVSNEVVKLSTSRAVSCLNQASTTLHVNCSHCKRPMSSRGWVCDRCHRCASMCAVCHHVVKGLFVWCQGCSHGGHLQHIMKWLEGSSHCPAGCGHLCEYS

This test covers variants of B1. Conditions: with wdr24_human WDR24, Q96S15.
On to D406A;D407A, for which the “effect of a mutation on the interaction” value is “disrupting interaction strength”.
